Measured values as given in article PMC3985186, “The influence of dynein processivity control, MAPs, and microtubule ends on directional movement of a localising mRNA” (eLife, 2014).

Legend:
[1] = molecular target: the molecule itself; assay: SEC; gel filtration of purified kin401T99N:mGFP before concentration
[2] = molecular target: the molecule itself; assay: stepwise photobleaching (TIR microscopy); dilute solution (1 pM) of kin401T99N:mGFP added to imaging chambers with HiLyte 647-labelled microtubules bound to the glass, no ATP, oxygen scavenging agent

B1: GFP-labelled Drosophila kinesin-1 (aa 1-401) rigor mutant, Kin401T99N:mGFP (domain or fragment)
chain: not shown
notes: The construct without the mutation was a gift from T Surrey; also called rigor kinesin; GFP-labelled rigor kinesin; source: bacteria (BL21(DE3) strain), dimeric fraction purified using gel filtration; not shown: monomeric GFP, C-terminal, kept
stoichiometry N [1]: 2 | stoichiometry N [2]: ≤ 2
